Values of other authors, collected in paper PMC9858354.

Biological target: CCRL2 (Homo sapiens) (UniProt O00421)
Experiment: radioligand

Chain of chemerin (Q99969 21-157): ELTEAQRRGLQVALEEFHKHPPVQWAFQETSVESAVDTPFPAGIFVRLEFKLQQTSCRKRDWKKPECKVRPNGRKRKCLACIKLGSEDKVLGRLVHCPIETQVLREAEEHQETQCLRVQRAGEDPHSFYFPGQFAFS
Chain of CCRL2 (Homo sapiens) (O00421 whole entry): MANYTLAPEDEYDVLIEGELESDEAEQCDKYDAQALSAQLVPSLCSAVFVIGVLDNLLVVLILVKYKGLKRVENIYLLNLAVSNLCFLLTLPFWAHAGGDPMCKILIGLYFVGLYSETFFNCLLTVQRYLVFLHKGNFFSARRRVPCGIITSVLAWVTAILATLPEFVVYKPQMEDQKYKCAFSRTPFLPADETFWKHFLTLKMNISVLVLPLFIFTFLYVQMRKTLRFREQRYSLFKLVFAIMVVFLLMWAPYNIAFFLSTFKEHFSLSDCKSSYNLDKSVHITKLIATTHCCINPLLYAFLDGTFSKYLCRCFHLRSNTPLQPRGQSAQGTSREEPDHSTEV

- Kd: 2.35 nM
Substance: chemerin (from UniProt Q99969)
